Laboratory results: US20250082753A1 (Hoffmann-La Roche, published 2025)

Biological target: T1, CH2-CH3 AAA P329R CAR
T1 construct: Expressed on transduced primary human T cells (CD4+:CD8+ 1:1); also called CH2 CH3 AAA PR CAR
Assay: flow cytometry double staining of CH2-CH3 AAA P329R CAR T cells with 50 nM anti-PG VH3xVL1 huIgG-AF647 and 100 nM anti-AAA x FolR1 1+1 TCB Avi Biotin + BV421 streptavidin
Method: In order to assess if the P329G mutation and AAA mutations can be bound by the respective molecules simultaneously, a second staining was performed as follows (FIG. 12A). The cells were incubated with LIVE/DEAD™ Fixable Near-IR Dead (Invitrogen, #L34976) dye (1:1000 in DPBS) and 50 nM of anti-PG VH3×VL1 huIgG-AF647 for 20 minutes at 4° C.
Then the cells were washed twice with FACS-buffer. In a second step the cells were incubated with 100 nM of anti-AAA×FolR1-Avi-Biotin 1+1 TCB and 500 nM Fc_P329LALA (20 minutes at 4° C.). Fc_P329GLALA served as blocking molecule, to prevent binding of the anti-PG VH3×VL1 huIgG-AF647 to the PG mutation in the anti-AAA×FolR1-Avi-Biotin 1+1 TCB. After the incubation, the cells were washed twice with FACS-buffer. In a third step the cells were resuspended in BV421 Streptavidin (Biolegend, #405225) and 500 nM Fc_P329LALA (20 min, 4° C.). After another two washing steps, the cells were fixed (BD CytoFix, #554655) and analyzed on the FACS.

T1 sequence (chain, as listed by the source P329R P329R limits assumed): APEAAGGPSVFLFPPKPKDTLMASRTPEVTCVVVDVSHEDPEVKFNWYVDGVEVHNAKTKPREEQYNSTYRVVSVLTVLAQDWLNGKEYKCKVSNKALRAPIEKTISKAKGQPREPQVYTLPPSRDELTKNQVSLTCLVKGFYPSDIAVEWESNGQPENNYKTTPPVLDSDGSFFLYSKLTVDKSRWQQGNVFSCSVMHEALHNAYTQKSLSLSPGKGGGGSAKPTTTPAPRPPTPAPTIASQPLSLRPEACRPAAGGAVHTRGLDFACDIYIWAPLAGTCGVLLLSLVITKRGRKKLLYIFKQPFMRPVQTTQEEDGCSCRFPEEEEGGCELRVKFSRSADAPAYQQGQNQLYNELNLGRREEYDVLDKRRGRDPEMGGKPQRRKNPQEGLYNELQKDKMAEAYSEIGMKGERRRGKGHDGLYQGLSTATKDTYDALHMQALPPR

- binding result: no binding (tested: 50 nM)
B1: Anti-P329G (VH3VL1) huIgG1 (antibody, V domains shown)
VH: EVQLVESGGGLVQPGGSLRLSCAASGFTFSRYWMNWVRQAPGKGLEWVGEITPDSSTINYAPSLKGRFTISRDNAKNSLYLQMNSLRAEDTAVYYCARPYDYGAWFASWGQGTLVTVSS
VL: QAVVTQEPSLTVSPGGTVTLTCRSSTGAVTTSNYANWVQEKPDHLFTGLIGGTNKRAPGTPARFSGSLLGGKAALTLSGAQPEDEAEYYCALWYSNHWVFGGGTKLTVL
notes: huIgG1; also called P1AE9957; anti-P329G VH3×VL1 AF647 labeled IgG
